Reference: patent US20240075137A1 (COMPUGEN, published 2024)

Key:
[1] = molecular target: T1, cyno TIGIT on cells (cynomolgus macaque); assay: flow cytometry of fab; MFI on cyno TIGIT over-expressing Expi293 / MFI on parental Expi293
T1 construct: whole, on cells; also called Expi293 cyno TIGIT over-expressing cells

[2] = molecular target: T2, human TIGIT on cells (human, UniProt Q495A1 22-141); assay: flow cytometry of fab; MFI on human TIGIT over-expressing Expi293 / MFI on parental Expi293
T2 construct: also called Expi293 human TIGIT over-expressing cells
T2 sequence: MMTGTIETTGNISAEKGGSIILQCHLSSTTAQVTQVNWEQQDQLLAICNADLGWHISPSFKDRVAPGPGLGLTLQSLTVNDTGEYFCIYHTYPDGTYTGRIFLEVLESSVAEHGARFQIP

[3] = molecular target: T3, Cyno TIGIT-His; assay: SPR (ProteOn), Cyno TIGIT-His
T3 construct: also called cyno TIGIT monomer (prepared in-house); C-terminal HIS-tagged cyno TIGIT ECD recombinant protein
T3 sequence (ECD with C-terminal His tag, as listed by the source): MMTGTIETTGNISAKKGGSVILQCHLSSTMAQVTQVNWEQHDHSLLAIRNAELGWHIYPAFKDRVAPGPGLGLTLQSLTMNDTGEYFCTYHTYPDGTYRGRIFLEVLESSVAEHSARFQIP

[4] = molecular target: T1, cyno TIGIT on cells; assay: FACS titration of AF647-labelled mAb on cyno effector memory CD8+ T cells, Cyno Donor 1; isotype gMFI subtracted
[5] = molecular target: T4, human TIGIT ECD with C-terminal polyhistidine tag (human, UniProt Q495A1 22-141); assay: SPR (ProteOn), Human TIGIT-His
T4 construct: in-house or Sino Biological; also called hTIGIT-HIS; human TIGIT-HIS
T4 sequence: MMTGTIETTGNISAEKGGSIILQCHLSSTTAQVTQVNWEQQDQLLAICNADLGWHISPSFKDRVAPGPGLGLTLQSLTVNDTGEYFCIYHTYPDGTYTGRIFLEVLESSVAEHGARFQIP

[6] = molecular target: T1, cyno TIGIT on cells; assay: FACS titration of AF647-labelled mAb on cyno effector memory CD8+ T cells, Cyno Donor 3; isotype gMFI subtracted
[7] = molecular target: T5, Mouse TIGIT-His (mouse, UniProt P86176); assay: SPR (ProteOn), Mouse TIGIT-His
T5 construct: also called mouse TIGIT monomer (prepared in-house)
T5 sequence (soluble monomer with His tag, looked up): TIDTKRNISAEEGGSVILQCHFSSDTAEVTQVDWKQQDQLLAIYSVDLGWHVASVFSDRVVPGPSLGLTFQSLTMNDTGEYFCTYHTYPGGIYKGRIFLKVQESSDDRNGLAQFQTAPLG

[8] = molecular target: T4, human TIGIT ECD with C-terminal …; assay: affinity maturation screen of fabs, SPR on hTIGIT-HIS
[9] = molecular target: T2, human TIGIT on cells; assay: FACS titration of AF647-labelled mAb on human effector memory CD8+ T cells, Donor 322
[10] = molecular target: T2, human TIGIT on cells; assay: FACS blocking of human PVR-m2aFc binding to human TIGIT OE Expi293 cells; binding site concentration; n=2
[11] = molecular target: T4, human TIGIT ECD with C-terminal …; assay: KinExA equilibrium, His-tagged human TIGIT, n = 1
Experimental: KinExA equilibrium experiments were performed using a KinExA 3200 instrument (Sapidyne Instruments, Boise, ID, USA) at 22° C. Recombinant His-tagged human TIGIT was obtained from Sino Biologicals (Beijing, China) and reconstituted into 1×PBS. All antigen and antibody samples for KinExA analyses were prepared in degassed PBST buffer (PBS with 0.05% tween 20) with 100 ug/mL filtered BSA and 0.02% sodium azide. […] For each KinExA experiment, ˜20 lag of human TIGIT was diluted into 1 mL of 50 mM sodium carbonate, pH 9.2 which was added directly to 50 mg of azlactone beads (Ultralink Support, Thermo Scientific, Rockford, IL, USA) and rocked overnight at 4° C. After rocking, the beads were rinsed once with 1 M Tris buffer, pH 8.5, containing 10 mg/mL BSA and rocked for one hour at room temperature in the same buffer. Coupled beads were added to the bead reservoir in the KinExA instrument and diluted to ˜30 mL with 1×HBS-N (0.01 M Hepes, 0.15M NaCl, GE Healthcare) containing 0.02% sodium azide which was also the running buffer for the KinExA instrument. All antigen-coupled beads were used immediately after preparation.
The volume flowed through the bead pack for each equilibrated sample for all experiments ranged from 4 mL to 11 mL at a flow rate of 0.25 mL/min.

[12] = molecular target: T1, cyno TIGIT on cells; assay: FACS titration on cyno TIGIT OE Expi293 cells, binding site concentration; ± 95% CI; 'Fit: Good/Excellent'
Experimental: AF647-labeled goat anti-human F(ab′) (Jackson Immunoresearch) was added to the cells to detect binding of anti-TIGIT antibodies. The gMFI of the anti-TIGIT antibodies bound to the cyno TIGIT over-expressing Expi293 cells (black line), and the parental Expi293 cells (grey line) are shown.

[13] = molecular target: T2, human TIGIT on cells; assay: FACS blocking of human PVR-m2aFc binding to human TIGIT OE Expi293 cells; binding site concentration; n=1
[14] = molecular target: T2, human TIGIT on cells; assay: FACS titration of AF647-labelled mAb on human effector memory CD8+ T cells, Donor 321
[15] = molecular target: T2, human TIGIT on cells; assay: FACS titration of AF647-labelled mAb on human effector memory CD8+ T cells, Donor 334
[16] = molecular target: T2, human TIGIT on cells; assay: FACS titration on human TIGIT OE Expi293 cells, binding site concentration; ± 95% CI; 'Fit: Excellent'
Experimental: AF647-labeled goat anti-human F(ab′) (Jackson Immunoresearch) was added to the cells to detect binding of anti-TIGIT antibodies.

B1: CPA.9.103 (fab) (Fab, V domains shown)
VH: EVQLVETGGGLIQPGGSLRLSCAASGFTVSSNYMSWVRQAPGKGLEWVSVIYSGGSTYYADSVKGRFTISRDNSKNTLYLQMNSLRAEDTAVYYCARGARPNGQYPYWGQGTLVTVSS
VL: DIQLTQSPSFLSASVGDRVTITCRASHGIKSLFSWYQQKPGKAPKLLIYAASTLQTGVPSRFSGSASGTEFTLTISSLQPEDFATYYCLQLDSFPTWTFGQGTKVEIK
notes: variant of CPA.9.059 screened as fab
- MFIr (OE/Par) cTIGIT [1]: 30
- MFIr (OE/Par) hTIGIT [2]: 95

B2: CPA.9.103 (antibody, human IgG4 S228P, kappa, V domains shown)
VH: EVQLVETGGGLIQPGGSLRLSCAASGFTVSSNYMSWVRQAPGKGLEWVSVIYSGGSTYYADSVKGRFTISRDNSKNTLYLQMNSLRAEDTAVYYCARGARPNGQYPYWGQGTLVTVSS
VL: DIQLTQSPSFLSASVGDRVTITCRASHGIKSLFSWYQQKPGKAPKLLIYAASTLQTGVPSRFSGSASGTEFTLTISSLQPEDFATYYCLQLDSFPTWTFGQGTKVEIKR
modifications: AF647 dye on the antibody in the FACS assay of FIG. 73
notes: fab form is m92; also called CPA.9.103.H4(S241P)
- Kd [3]: 0.337 nM
- Kd [4]: 31 nM
- Kd [5]: 6.4 pM
- Kd [6]: 25 nM
- Kd [7]: 25 nM

B3: CPA.9.101 (fab) (Fab, V domains shown)
VH: EVQLVETGGGLIQPGGSLRLSCAASGFTVSSNYMSWVRQAPGKGLEWVSVIYSGGSTYYADSVKGRFTISRDNSKNTLYLQMNSLRAEDTAVYYCARGAPLFGQYPYWGQGTLVTVSS
VL: DIQMTQSPSSLSASVGDRVTITCRASHAIASLFSWYQQKPGKAPKLLIYAASTLQTGVPSRFSGSASGTEFTLTISSLQPEDFATYYCLQLDSFPTWTFGQGTKVEIK
notes: as for B1
- MFIr (OE/Par) cTIGIT [1]: 22
- MFIr (OE/Par) hTIGIT [2]: 130

B4: CPA.9.083 (fab) (Fab, V domains shown)
VH: EVQLVETGGGLIQPGRSLRLSCAASGFTFSSYAMHWVRQAPGKGLEWVAVISYDGTPVYYADSVKGRFTISRDNSKNTLYLQMNSLRAEDTAVYYCARDPLPLHYYGMDVWGQGTTVTVSS
VL: QSALTQPRSASGNPGQRVTISCSGSSSNMGRRPVNWYQQIPGTAPKLLIYSQNQRPSGVPDRFSGSQSGTSASLTISGLQSEDEAEYFCAVWDGDRRSLQLGGGTQLAVLG
notes: variant of CPA.9.027 screened as fab
- MFIr (OE/Par) cTIGIT [1]: 97
- MFIr (OE/Par) hTIGIT [2]: 170
- fold improvement in binding over CPA.9.027 [8]: ≥ 25 fold

B5: CPA.9.083.H4(S241P) (antibody, human IgG4, V domains shown)
VH: EVQLVETGGGLIQPGRSLRLSCAASGFTFSSYAMHWVRQAPGKGLEWVAVISYDGTPVYYADSVKGRFTISRDNSKNTLYLQMNSLRAEDTAVYYCARDPLPLHYYGMDVWGQGTTVTVSS
VL: QSALTQPRSASGNPGQRVTISCSGSSSNMGRRPVNWYQQIPGTAPKLLIYSQNQRPSGVPDRFSGSQSGTSASLTISGLQSEDEAEYFCAVWDGDRRSLQLGGGTQLAVLG
- binding result [3]: binds
- Kd [9]: 0.12 nM
- IC50 [10]: 0.22 nM
- Kd [11]: 0.694 pM
- Kd [4]: 0.82 nM
- Kd [5]: 1.7 pM
- Kd [12]: 0.49 nM
- IC50 [13]: 0.47 nM
- Kd [14]: 0.13 nM
- Kd [15]: 0.13 nM
- Kd [6]: 0.88 nM
- Kd [7]: 0.434 nM
- Kd [16]: 0.39 nM

B6: CPA.9.089 (fab) (Fab, V domains shown)
VH: EVQLVETGGGLIQPGRSLRLSCAASGFTFSSYAMHWVRQAPGKGLEWVAVISYDRTPVYYADSVKGRFTISRDNSKNTLYLQMNSLRAEDTAVYYCARDPLPLHYYGMDVWGQGTTVTVSS
VL: QSALTQPRSASGNPGQRVTISCSGSSSNMGRRPVNWYQQIPGTAPKLLIYSQNQRPSGVPDRFSGSQSGTSASLTISGLQSEDEAEYFCATWDDSLPRLNFGGGTKLAVL
notes: as for B4
- MFIr (OE/Par) cTIGIT [1]: 52
- MFIr (OE/Par) hTIGIT [2]: 110
- fold improvement in binding over CPA.9.027 [8]: ≥ 25 fold

B7: CPA.9.086 (fab) (Fab, V domains shown)
VH: EVQLVETGGGLIQPGRSLRLSCAASGFTFSSYAMHWVRQAPGKGLEWVAVISYAGEVKYYADSVKGRFTISRDNSKNTLYLQMNSLRAEDTAVYYCARDPLPLHYYGMDVWGQGTTVTVSS
VL: QSALTQPRSASGNPGQRVTISCSGSSSNMGRRPVNWYQQIPGTAPKLLIYSQNQRPSGVPDRFSGSQSGTSASLTISGLQSEDEAEYFCAVWDDIGRVLQLGGGTQLAVLG
notes: as for B4
- MFIr (OE/Par) cTIGIT [1]: 34
- MFIr (OE/Par) hTIGIT [2]: 36
- fold improvement in binding over CPA.9.027 [8]: ≥ 25 fold

B8: CPA.9.093 (fab) (Fab, V domains shown)
VH: EVQLVETGGGLIQPGRSLRLSCAASGFTFSSYAMHWVRQAPGKGLEWVAVISYEGDRKYYADSVKGRFTISRDNSKNTLYLQMNSLRAEDTAVYYCARDPLPLHYYGMDVWGQGTTVTVSS
VL: QSALTQPRSASGNPGQRVTISCSGSSSNMGRRPVNWYQQIPGTAPKLLIYSQNQRPSGVPDRFSGSQSGTSASLTISGLQSEDEAEYFCATWDDSTPHGVFGGGTKLAVL
notes: as for B4
- MFIr (OE/Par) cTIGIT [1]: 60
- MFIr (OE/Par) hTIGIT [2]: 80
- fold improvement in binding over CPA.9.027 [8]: ≥ 25 fold

B9: CHA.9.547.1 (antibody, human IgG4 S228P, kappa, V domains shown)
VH: EVQLVESGGGLVQPGGSLRLSCAASGFTFSSYIMSWVRQAPGKGLEWVSTISGGGTNTYYADSVKGRFTISRDNSKNTLYLQMNSLRAEDTAVYYCAKWLLSYYAMDYWGQGTLVTVSS
VL: DIQMTQSPSSLSASVGDRVTITCRASQNINVWLTWYQQKPGKAPKLLIYKASNLHTGVPSRFSGSGSGTDFTLTISSLQPEDFATYYCQQGQSYPYTFGQGTKLEIKR
modifications: AF647 dye on the antibody in the FACS assay of FIG. 73
notes: also called CHA.9.547.1.H4(S241P)
- Kd [3]: 1.13 nM
- Kd [4]: 25 nM
- Kd [6]: 19 nM
- binding result [7]: no binding (tested: not printed)

B10: CHA.9.547.13.H4(S241P) (antibody, human IgG4, V domains shown)
VH: EVQLVESGGGLVQPGGSLRLSCAASGFTFSSYIMSWVRQAPGKGLEWVATISGGGTNTYYADSVKGRFTISRDNSKNTLYLQMNSLRAEDTAVYYCAKWLLSYYAMDYWGQGTLVTVSS
VL: DIQMTQSPSSLSASVGDRITITCRASQNINVWLSWYQQKPGKAPKLLIYKASKSHTGVPSRFSGSGSGTDFTLTISSLQPEDFATYYCQQGQSYPYTFGQGTKLEIK
notes: humanized hybridoma antibody, human IgG4 (S241P)
- Kd [9]: 1.9 nM
- IC50 [10]: 0.21 nM
- Kd [11]: 18.8 pM
- Kd [12]: 1.67 nM
- IC50 [13]: 0.26 nM
- Kd [14]: 2 nM
- Kd [15]: 1.2 nM
- Kd [16]: 0.71 nM

B11: CHA.9.547.7.H4(S241P) (antibody, human IgG4 S228P, kappa, V domains shown)
VH: EVQLVESGGGLVQPGGSLRLSCAASGFTFSSYIMSWVRQAPGKGLEWVATISGGGTNTYYADSVKGRFTISRDNSKNTLYLQMNSLRAEDTAVYYCAKWLLSYYAMDYWGQGTLVTVSS
VL: DIQMTQSPSSLSASVGDRVTITCRASQNINVWLTWYQQKPGKAPKLLIYKASKSHTGVPSRFSGSGSGTDFTLTISSLQPEDFATYYCQQGQSYPYTFGQGTKLEIKR
notes: humanized hybridoma anti-TIGIT antibody, human IgG4
- Kd [3]: 0.456 nM
- Kd [9]: 2.1 nM
- IC50 [10]: 0.15 nM
- Kd [5]: 35 pM
- Kd [12]: 1.54 nM
- IC50 [13]: 0.21 nM
- Kd [14]: 1.8 nM
- Kd [15]: 1.8 nM
- binding result [7]: no binding (tested: not printed)
- Kd [16]: 0.82 nM
